Results from patent EP4671273A1 (Anaveon AG, dated 2025).
Positions count from the first letter of the chain named. Read-outs that look alike come from different tables or passages of the source. Blank lines part the entries; values can stand above or below the binder they belong to.

Columns and labels:
[1] = target: T1, recombinant IL-21Ra-Fc (AcroBiosystems) (human, UniProt Q9HBE5 20-232); assay: SPR, not shown
T1 construct: bought; also called rIL-21Rα; rIL-21Ra-Fc; not shown: Fc of the bought reagent, not described

[2] = target: recombinant human IL-21 (rhIL-21) (human, UniProt Q9HBE4 30-162, limits assumed); assay: cell-based or functional assay
[3] = target: T2, human IL-21 receptor (IL-21R) on cells (human, UniProt Q9HBE5 20-538; P31785 23-369); assay: cell-based or functional assay
[4] = target: T2, human IL-21 receptor (IL-21R) on cells; assay: cell-based or functional assay; remark: listed apart in the source
[5] = target: T2, human IL-21 receptor (IL-21R) on cells; assay: cell-based or functional assay; remark: listed apart in the source
[6] = target: T2, human IL-21 receptor (IL-21R) on cells; assay: cell-based or functional assay; remark: listed apart in the source
[7] = target: T2, human IL-21 receptor (IL-21R) on cells; assay: cell-based or functional assay; remark: listed apart in the source

T2 sequence (Q9HBE5 20-538, chain 1 of 2): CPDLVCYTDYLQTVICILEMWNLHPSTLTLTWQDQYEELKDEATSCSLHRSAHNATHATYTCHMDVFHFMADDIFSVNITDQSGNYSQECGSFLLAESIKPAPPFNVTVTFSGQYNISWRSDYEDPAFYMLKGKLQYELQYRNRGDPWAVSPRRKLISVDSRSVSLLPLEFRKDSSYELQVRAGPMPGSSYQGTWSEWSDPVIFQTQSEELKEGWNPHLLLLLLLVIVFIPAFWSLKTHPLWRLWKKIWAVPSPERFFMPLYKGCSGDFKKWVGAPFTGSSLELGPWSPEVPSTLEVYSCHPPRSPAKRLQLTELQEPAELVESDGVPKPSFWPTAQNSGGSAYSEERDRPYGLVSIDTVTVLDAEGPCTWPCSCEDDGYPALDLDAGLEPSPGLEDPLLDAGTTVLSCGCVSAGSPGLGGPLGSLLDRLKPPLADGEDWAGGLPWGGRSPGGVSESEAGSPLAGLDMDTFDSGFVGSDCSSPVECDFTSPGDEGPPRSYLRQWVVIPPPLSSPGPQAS
T2 sequence (P31785 23-369, chain 2 of 2): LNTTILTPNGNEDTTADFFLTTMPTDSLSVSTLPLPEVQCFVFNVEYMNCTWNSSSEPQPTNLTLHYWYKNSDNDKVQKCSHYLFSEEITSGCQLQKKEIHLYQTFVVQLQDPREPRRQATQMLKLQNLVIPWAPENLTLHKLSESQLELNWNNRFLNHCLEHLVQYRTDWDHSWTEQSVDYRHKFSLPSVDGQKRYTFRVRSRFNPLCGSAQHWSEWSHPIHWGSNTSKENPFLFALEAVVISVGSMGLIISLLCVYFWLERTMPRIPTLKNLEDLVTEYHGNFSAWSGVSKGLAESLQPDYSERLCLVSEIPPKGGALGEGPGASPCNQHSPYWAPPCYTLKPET
T1 sequence (Q9HBE5 20-232): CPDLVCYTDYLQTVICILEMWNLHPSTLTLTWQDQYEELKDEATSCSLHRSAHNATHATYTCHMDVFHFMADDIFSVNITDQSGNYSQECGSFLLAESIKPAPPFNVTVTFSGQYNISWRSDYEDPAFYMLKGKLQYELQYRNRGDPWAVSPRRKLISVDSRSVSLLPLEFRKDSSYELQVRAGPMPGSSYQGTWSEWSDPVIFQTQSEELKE

B2: PAP722 (bispecific antibody, human IgG1, kappa, lambda, L234A L235A)
heavy 1: EVQLLESGGGLVQPGGSLRLSCAASGFTFSINAMTWVRQAPGKGLEWVSTISGSGFSTYYADSLKGRFTISRDNSKNTLYLQMNSLRAEDTAVYYCAKEVYGDYWGQGTLVTVSSASTKGPSVFPLAPSSKSTSGGTAALGCLVKDYFPEPVTVSWNSGALTSGVHTFPAVLQSSGLYSLSSVVTVPSSSLGTQTYICNVNHKPSNTKVDKRVEPKSCDKTHTCPPCPAPEAAGGPSVFLFPPKPKDTLMISRTPEVTCVVVDVSHEDPEVKFNWYVDGVEVHNAKTKPREEQYNSTYRVVSVLTVLHQDWLNGKEYKCKVSNKALAAPIEKTISKAKGQPREPQVCTLPPSREEMTKNQVSLSCAVKGFYPSDIAVEWESNGQPENNYKTTPPVLDSDGSFFLVSKLTVDKSRWQQGNVFSCSVMHEALHNHYTQKSLSLSPGK
light 1: not shown
heavy 2: QVQLQESGPGLVKPSETLSLTCTVSGGSISSDYWGWIRQPPGKGLEWIGYISSRGSTNYNPSLKRRVTISVDTSRNQFSLKLSSVTAADTAVYYCARSAGVADFDFWGQGTLVTVSSASTKGPSVFPLAPSSKSTSGGTAALGCLVKDYFPEPVTVSWNSGALTSGVHTFPAVLQSSGLYSLSSVVTVPSSSLGTQTYICNVNHKPSNTKVDKRVEPKSCDKTHTCPPCPAPEAAGGPSVFLFPPKPKDTLMISRTPEVTCVVVDVSHEDPEVKFNWYVDGVEVHNAKTKPREEQYNSTYRVVSVLTVLHQDWLNGKEYKCKVSNKALAAPIEKTISKAKGQPREPQVYTLPPCREEMTKNQVSLWCLVKGFYPSDIAVEWESNGQPENNYKTTPPVLDSDGSFFLYSKLTVDKSRWQQGNVFSCSVMHEALHNHYTQKSLSLSPGK
light 2: not shown
Δ [3]: 4.3
EC50B, pSTAT3+ Jurkat PD-1 cells, PD-1 blocked [4]: 1.97 nM
EC50NB, pSTAT3+ Jurkat PD-1 cells [4]: 0.019 nM

B4: YWW798 (bispecific antibody, human IgG1, kappa, lambda, L234A L235A)
heavy 1: B2 heavy 1
light 1: not shown
heavy 2: B2 heavy 2 with S53Y, R54S, R65S, A102T, F106A
light 2: not shown
Δ [3]: 3.45
EC50B, pSTAT3+ Jurkat PD-1 cells, PD-1 blocked [6]: 0.526 nM
EC50NB, pSTAT3+ Jurkat PD-1 cells [6]: 0.004 nM

B6: GOP758 (bispecific antibody, human IgG1, kappa, lambda, L234A L235A)
heavy 1: B2 heavy 1
light 1: not shown
heavy 2: B2 heavy 2 with Y33F, A102T
light 2: DIQMTQSPSSVSASVGDRVTITCRASQGISSWLAWYQHKPGKAPKLLIYVASSLQGGGGSQGQDRHMIRMRQLIDIVDQLKNYVNDLVPEFLPAPEDVETNCEWSAFSCFQKAQLKSANTGNNERIINVSIKKLKRKPPSTNAGRRQKHRLTCPSCDSYEKKPPKEFLERFKSLLQKMIHQHLSSRTHGSEDSGGGGSSGVPSRFSGSGSGTDFTLTISSLQPEDFATYYCQQANSFPLTFGGGTKVEIKRTVAAPSVFIFPPSDEQLKSGTASVVCLLNNFYPREAKVQWKVDNALQSGNSQESVTEQDSKDSTYSLSSTLTLSKADYEKHKVYACEVTHQGLSSPVTKSFNRGEC
EC50B, pSTAT3+ Jurkat PD-1 cells, PD-1 blocked [5]: 0.51 nM
EC50NB, pSTAT3+ Jurkat PD-1 cells [5]: 0.227 nM

B10: DMT806 (bispecific antibody, human IgG1, kappa, lambda, L234A L235A)
heavy 1: B2 heavy 1
light 1: not shown
heavy 2: not shown
light 2: DIQMTQSPSSVSASVGDRVTITCRASQGISSWLAWYQHKPGKAPKLLIYVASSLQSGVPSRFSGSGSGTDFTLTISSLQPEDFATYYCQQANSFPLTFGGGTKVEIKRTVAAPSVFIFPPSDEQLKSGTASVVCLLNNFYPREAKVQWKVDNALQSGNSQESVTEQDSKDSTYSLSSTLTLSKADYEKHKVYACEVTHQGLSSPVTKSFNRGEC
Δ [3]: 2.79
EC50B, pSTAT3+ Jurkat PD-1 cells, PD-1 blocked [7]: 12.4 nM
EC50NB, pSTAT3+ Jurkat PD-1 cells [7]: 0.17 nM

Second part, the binder after the results:

binding result [1]: binds
% pSTAT3+ Jurkat cells, 0.1 nM rhIL-21 + 0 nM antibody [2]: 82.7%
% pSTAT3+ Jurkat cells, 0.1 nM rhIL-21 + 0.1012 nM antibody [2]: 59.4%
% pSTAT3+ Jurkat cells, 0.1 nM rhIL-21 + 0.1602 nM antibody [2]: 6.07%
% pSTAT3+ Jurkat cells, 0.1 nM rhIL-21 + 0.2536 nM antibody [2]: 4.93%
% pSTAT3+ Jurkat cells, 0.1 nM rhIL-21 + 0.4015 nM antibody [2]: 4.39%
% pSTAT3+ Jurkat cells, 0.1 nM rhIL-21 + 0.6355 nM antibody [2]: 5.32%
% pSTAT3+ Jurkat cells, 0.1 nM rhIL-21 + 1.006 nM antibody [2]: 5.9%
% pSTAT3+ Jurkat cells, 0.1 nM rhIL-21 + 1.5925 nM antibody [2]: 4.78%
% pSTAT3+ Jurkat cells, 0.1 nM rhIL-21 + 2.5209 nM antibody [2]: 5.16%
% pSTAT3+ Jurkat cells, 0.1 nM rhIL-21 + 3.9906 nM antibody [2]: 4.64%
% pSTAT3+ Jurkat cells, 0.1 nM rhIL-21 + 6.3171 nM antibody [2]: 3.99%
% pSTAT3+ Jurkat cells, 0.1 nM rhIL-21 + 10 nM antibody [2]: 3.83%
B1: FYP014 (antibody, human IgG1, V domains shown)
VH: EVQLVESGGGLVKPGGSLRLSCAASGFIFSSYSMNWVRQAPGKGLEWVSSITSGSYYIHYADSVKGRFTISRDNAKNSLYLQMNSLRAEDTAVYYCVRERGWGYYGMDVWGQGTTVTVSS
VL: AIQLTQSPSSLSASVGDRVTITCRASQDIDSALAWYQQKPGKAPKILIHDASSLESGVPSRFSGSGSGTDFTLTISSLQPEDFATYYCQQFNSYPYTFGQGTKLEIK
notes: human IgG1; also called EP3103813A1 clone 366.328.10.63

EC50B, pSTAT3+ Jurkat PD-1 cells, PD-1 blocked [5]: 2.3 nM
EC50NB, pSTAT3+ Jurkat PD-1 cells [5]: 0.039 nM
B3: VCG677 (bispecific antibody, human IgG1, kappa, lambda, L234A L235A)
heavy 1: B2 heavy 1
light 1: not shown
heavy 2: B2 heavy 2 with Y33F, A102T
light 2: not shown

EC50B, pSTAT3+ Jurkat PD-1 cells, PD-1 blocked [5]: 0.97 nM
EC50NB, pSTAT3+ Jurkat PD-1 cells [5]: 0.036 nM
B5: ZNP367 (bispecific antibody, human IgG1, kappa, lambda, L234A L235A)
heavy 1: B2 heavy 1
light 1: not shown
heavy 2: B2 heavy 2 with Y33F, A102T
light 2: not shown

Δ [3]: 8.18
EC50B, pSTAT3+ Jurkat PD-1 cells, PD-1 blocked [6]: 1.52 nM
EC50NB, pSTAT3+ Jurkat PD-1 cells [6]: 0.003 nM
B7: WBL338 (bispecific antibody)
heavy 1: B2 heavy 1
light 1: not shown
heavy 2: B2 heavy 2 with S53Y, R65S, A102T, F106W
light 2: not shown

Δ [3]: 4.21
EC50B, pSTAT3+ Jurkat PD-1 cells, PD-1 blocked [4]: 1.33 nM
EC50NB, pSTAT3+ Jurkat PD-1 cells [4]: 0.009 nM
B8: YCV364 (bispecific antibody, human IgG1, kappa, lambda, L234A L235A)
heavy 1: B2 heavy 1
light 1: not shown
heavy 2: B2 heavy 2 with Y33F
light 2: not shown

Δ [3]: 2.96
EC50B, pSTAT3+ Jurkat PD-1 cells, PD-1 blocked [6]: 0.951 nM
EC50NB, pSTAT3+ Jurkat PD-1 cells [6]: 0.004 nM
B9: TVU155 (bispecific antibody, human IgG1, kappa, lambda, L234A L235A)
heavy 1: B2 heavy 1
light 1: not shown
heavy 2: B2 heavy 2 with S53Y, R65S, A102T, F106A
light 2: not shown
